Among the data in PMC11484706 are response (normalized to MDA-MB-468) values, retold here.

Holding throughout (assay): PU-beads capture (affinity pull-down), immunoblot band quantification
Holding throughout (details): HEK293 cells transfected with the mutant; n = 3; input = 2% of protein incubated with the beads; read off a plot
A general note: In western blotting, separated proteins are transferred to a membrane and probed.

The target of experiment [1] is AHA1 (endogenous, HEK293).
Experiment [2] concerns the target HSP110 (endogenous, HEK293).
Experiment [3] concerns the target PU-beads (PU-H71 epichaperome affinity probe).
Another experiment deals with HOP (endogenous, HEK293).

As to mCherry WT HSP90β (HEK293) S226A; S255A, the response (normalized to MDA-MB-468) in experiment [1] stood at 0.65; in experiment [2] it was 0.63; in experiment [3] it was 0.65; with HOP (endogenous, HEK293), 0.25.
